According to US20030148956A1 (PROCTER AND GAMBLE, published 2003):
Changes are numbered by the printed parent chain. Ends that are not written are not given here.

T1: corticotropin releasing factor 2 receptor
T1 sequence (Q13324 whole entry, species assumed, looked up): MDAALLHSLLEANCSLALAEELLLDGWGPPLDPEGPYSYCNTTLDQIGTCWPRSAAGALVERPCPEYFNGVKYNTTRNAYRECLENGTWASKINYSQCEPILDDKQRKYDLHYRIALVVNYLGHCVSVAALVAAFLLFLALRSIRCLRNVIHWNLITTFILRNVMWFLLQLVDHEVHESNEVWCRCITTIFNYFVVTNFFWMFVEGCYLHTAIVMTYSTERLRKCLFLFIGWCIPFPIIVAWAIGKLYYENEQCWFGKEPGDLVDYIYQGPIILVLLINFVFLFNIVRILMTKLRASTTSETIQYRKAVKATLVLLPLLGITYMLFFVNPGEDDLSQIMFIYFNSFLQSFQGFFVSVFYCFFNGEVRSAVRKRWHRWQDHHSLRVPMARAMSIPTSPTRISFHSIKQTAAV

B1: SEQ ID NO 263 (peptide)
peptide: DNPSLSIDLPYYLLRTLLELARTQSQRERAEQNAIIFASV-NH2
B2: SEQ ID NO 267 (peptide)
peptide: NDDPPISIDLPYYLLRNMIEMARIENEREQAGLNAKYLAEV-NH2
B3: SEQ ID NO 266 (peptide)
peptide: NDDPPISIDLPTYLLRNMIEMARIENEREQAGLNAKYLAEV-NH2
B4: SEQ ID NO 264 (peptide)
peptide: NDDPPISIDLPFFLLRNMIEMARIENEREQAGLNAKYLAEV-NH2
B5: SEQ ID NO 272 (peptide)
peptide: ZGPPISIDLPFQLLRKVIEIEKQEKEKQQAANNAELLAEI
modifications: C-terminal amide
B6: SEQ ID NO 274 (peptide)
peptide: B5 peptide with E35K, E39K
modifications: C-terminal amide
B7: SEQ ID NO 279 (peptide)
peptide: B5 peptide with E35R, E39R
modifications: C-terminal amide
B8: SEQ ID NO 286 (peptide)
peptide: B5 peptide with F11Y, E35R, E39R
modifications: C-terminal amide
B9: SEQ ID NO 289 (peptide)
peptide: B5 peptide with F11Y, Q12W, V17M, E35R, E39R
modifications: C-terminal amide
B10: SEQ ID NO 273 (peptide)
peptide: B5 peptide with E35Q, E39H
modifications: C-terminal amide
B11: SEQ ID NO 281 (peptide)
peptide: B5 peptide with F11I, Q12F, E35R, E39R
modifications: C-terminal amide
B12: SEQ ID NO 276 (peptide)
peptide: B5 peptide with E35Q, E39Q
modifications: C-terminal amide
B13: SEQ ID NO 285 (peptide)
peptide: B5 peptide with F11Q, Q12I, V17M, E35R, E39R
modifications: C-terminal amide
B14: SEQ ID NO 280 (peptide)
peptide: B5 peptide with F11I, Q12F, E35L, E39T
modifications: C-terminal amide
B15: SEQ ID NO 283 (peptide)
peptide: B5 peptide with F11Y, A34R, E35L, A38D, E39T
modifications: C-terminal amide

Molecular target: T1, corticotropin releasing factor 2 …
Assay: cell-based or functional assay

Question: B1 was tested. Which “CRF2R EC50” value did it give?
Answer: 36.2 nM

Question: What about the “CRF2R Emax %” value of the same binder?
Answer: 93%

Question: For B2, which “CRF2R EC50” value is on record?
Answer: 100 nM

Question: And the “CRF2R Emax %” value?
Answer: 44.2%

Question: For B3, which “CRF2R EC50” value is on record?
Answer: 100 nM

Question: And the “CRF2R Emax %” value?
Answer: 19.4%

Question: B4 was tested. Which “CRF2R EC50” value did it give?
Answer: 100 nM

Question: What about the “CRF2R Emax %” value of the same binder?
Answer: 66.3%

Question: Which “CRF2R EC50” value does the source give for B5 here?
Answer: 23.3 nM

Question: What about the “CRF2R Emax %” value of the same binder?
Answer: 100%

Question: How did the “CRF2R EC50” value turn out when B6 was run?
Answer: 13.8 nM

Question: What about the “CRF2R Emax %” value of the same binder?
Answer: 100%

Question: With B7 as the binder, how does the “CRF2R EC50” value read?
Answer: 13.1 nM

Question: And the “CRF2R Emax %” value?
Answer: 100%

Question: How did the “CRF2R EC50” value turn out when B8 was run?
Answer: 13.5 nM

Question: What about the “CRF2R Emax %” value of the same binder?
Answer: 92.5%

Question: For B9, which “CRF2R EC50” value is on record?
Answer: 12.2 nM

Question: And the “CRF2R Emax %” value?
Answer: 97.3%

Question: Which results are given for B10?
Answer: CRF2R EC50: 31.3 nM; CRF2R Emax %: 100%

Question: How did the “CRF2R EC50” value turn out when B11 was run?
Answer: 100 nM

Question: What about the “CRF2R Emax %” value of the same binder?
Answer: 78.8%

Question: What does the source list for B12?
Answer: CRF2R EC50: 22.1 nM; CRF2R Emax %: 100%

Question: Which “CRF2R EC50” value does the source give for B13 here?
Answer: 13.9 nM

Question: What about the “CRF2R Emax %” value of the same binder?
Answer: 97.1%

Question: How did the “CRF2R EC50” value turn out when B14 was run?
Answer: 100 nM

Question: What about the “CRF2R Emax %” value of the same binder?
Answer: 82.3%

Question: Which “CRF2R EC50” value does the source give for B15 here?
Answer: 10.6 nM

Question: And the “CRF2R Emax %” value?
Answer: 72%

Molecular target: corticotropin releasing factor 1 receptor
Assay: cell-based or functional assay

Question: How did the “CRF1R EC50” value turn out when B1 was run?
Answer: 802 nM

Question: And the “CRF1R Emax %” value?
Answer: 72%

Question: B2 was tested. Which “CRF1R EC50” value did it give?
Answer: 1000 nM

Question: And the “CRF1R Emax %” value?
Answer: 22.8%

Question: B3 was tested. Which “CRF1R EC50” value did it give?
Answer: 1000 nM

Question: And the “CRF1R Emax %” value?
Answer: 4.45%

Question: What does the source list for B4?
Answer: CRF1R EC50: 704 nM; CRF1R Emax %: 100%

Question: With B5 as the binder, how does the “CRF1R EC50” value read?
Answer: 1000 nM

Question: What about the “CRF1R Emax %” value of the same binder?
Answer: 51.1%

Question: Which “CRF1R EC50” value does the source give for B6 here?
Answer: 508 nM

Question: What about the “CRF1R Emax %” value of the same binder?
Answer: 80.9%

Question: How did the “CRF1R EC50” value turn out when B7 was run?
Answer: 1000 nM

Question: What about the “CRF1R Emax %” value of the same binder?
Answer: 93%

Question: How did the “CRF1R EC50” value turn out when B8 was run?
Answer: 1000 nM

Question: And the “CRF1R Emax %” value?
Answer: 19.2%

Question: For B9, which “CRF1R EC50” value is on record?
Answer: 1000 nM

Question: What about the “CRF1R Emax %” value of the same binder?
Answer: 69.5%

Question: What does the source list for B10?
Answer: CRF1R EC50: 1000 nM; CRF1R Emax %: 59.3%

Question: B11 was tested. Which “CRF1R EC50” value did it give?
Answer: 1000 nM

Question: And the “CRF1R Emax %” value?
Answer: 12.2%

Question: For B12, which “CRF1R EC50” value is on record?
Answer: 1000 nM

Question: And the “CRF1R Emax %” value?
Answer: 75.7%

Question: What does the source list for B13?
Answer: CRF1R EC50: 1000 nM; CRF1R Emax %: 11.1%

Question: B14 was tested. Which “CRF1R EC50” value did it give?
Answer: 1000 nM

Question: And the “CRF1R Emax %” value?
Answer: 11.8%

Question: For B15, which “CRF1R EC50” value is on record?
Answer: 635 nM

Question: What about the “CRF1R Emax %” value of the same binder?
Answer: 100%
